Assay results: PMC4460869

Molecular target: GST-tagged BmAPN4 (silkworm aminopeptidase N 4) (Bombyx mori)

**Q.** For “trypsin-activated parasporal crystal toxin (PC) from Bacillus bombysepticus (domain or fragment)”, which proportion of viable BmAPN4-expressing Sf9 cells after PC, counted in 50 optical fields is on record?
**A.** 15.8%

**Q.** What about the release of total intracellular LDH from BmAPN4-transfected Sf9 cells into the medium after trypsin-activated PC, 6 h; untransfected Sf9 cells not affected of the same substance?
**A.** 35.3%
